B1: Rat serum albumin (other, UniProt P02770 25-608, looked up)
chain: EAHKSEIAHRFKDLGEQHFKGLVLIAFSQYLQKCPYEEHIKLVQEVTDFAKTCVADENAENCDKSIHTLFGDKLCAIPKLRDNYGELADCCAKQEPERNECFLQHKDDNPNLPPFQRPEAEAMCTSFQENPTSFLGHYLHEVARRHPYFYAPELLYYAEKYNEVLTQCCTESDKAACLTPKLDAVKEKALVAAVRQRMKCSSMQRFGERAFKAWAVARMSQRFPNAEFAEITKLATDVTKINKECCHGDLLECADDRAELAKYMCENQATISSKLQACCDKPVLQKSQCLAEIEHDNIPADLPSIAADFVEDKEVCKNYAEAKDVFLGTFLYEYSRRHPDYSVSLLLRLAKKYEATLEKCCAEGDPPACYGTVLAEFQPLVEEPKNLVKTNCELYEKLGEYGFQNAVLVRYTQKAPQVSTPTLVEAARNLGRVGTKCCTLPEAQRLPCVEDYLSAILNRLCVLHEKTPVSEKVTKCCSGSLVERRPCFSALTVDETYVPKEFKAETFTFHSDICTLPDKEKQIKKQTALAELVKHKPKATEDQLKTVMGDFAQFVDKCCKAADKDNCFATEGPNLVARSKEALA
notes: also called RSA
B2: 2xGLP-1 (7-37) A8G DOM7h-14 dAb fusion (DAT0114) (other)
chain: HGEGTFTSDVSSYLEGQAAKEFIAWLVKGRHGEGTFTSDVSSYLEGQAAKEFIAWLVKGRDIQMTQSPSSLSASVGDRVTITCRASQWIGSQLSWYQQKPGKAPKLLIMWRSSLQSGVPSRFSGSGSGTDFTLTISSLQPEDFATYYCAQGAALPRTFGQGTKVEIKA
notes: also called 2xGLP-1 (7-37) A8G DOM7h-14 fusion; 2xGLP-1 A8G DOM7h-14 fusion
B3: GLP-1 (7-37) A8G, helical linker, DOM7h-14 dAb fusion (DAT0120) (other)
chain: HGEGTFTSDVSSYLEGQAAKEFIAWLVKGRGKEAAAKEAAAKEAAAKELAAKEAAAKEAAAKEAAAKELAADIQMTQSPSSLSASVGDRVTITCRASQWIGSQLSWYQQKPGKAPKLLIMWRSSLQSGVPSRFSGSGSGTDFTLTISSLQPEDFATYYCAQGAALPRTFGQGTKVEIKR
notes: also called GLP-1 A8G, helical linker, DOM7h-14 fusion; GLP-1 (7-37) A8G, helical linker, DOM7h-14 fusion

What was measured:
[1] = target: T1, Exendin 4 (G4S linker)3 DOM7h-14 dAb fusion (DAT0115); experiment: SPR (Biacore), biotinylated albumin on streptavidin chip, fusion in solution
T1 construct: also called Exendin 4 (G4S)3 DOM7h-14 fusion
Experimental: The analysis was performed using a streptavidin chip (SA) coated with biotinylated serum albumin. 200-1000 resonance units (RUs) of each serum albumin was immobilised on the chip. Flow cell 1 was uncoated, flow cell 2 was coated with HSA, flow cell 3 was coated with RSA and flow cell 4 was coated with CSA.
Affinity (KD) was calculated from the BIACORE traces by fitting on-rate and off-rate curves to traces generated by concentrations of dAb in the region of the KD.

[2] = target: T2, Mouse serum albumin (mouse, UniProt P07724 25-608); experiment: SPR (Biacore), albumin immobilised on CM5 chip, fusion in solution
T2 construct: also called MSA
Experimental: (§1) The analysis was performed using a CMS Biacore chip (carboxymethylated dextran matrix) that was coated with serum albumin. About 1000 resonance units (RUs) of each serum albumin to be tested (human, rat and mouse serum albumin) was immobilised in acetate buffer pH 5.5. […] Affinity (KD) was calculated from the BIACORE traces by fitting on-rate and off-rate curves to traces generated by concentrations of dAb in the region of the KD.

[3] = target: T3, Human serum albumin (human, UniProt P02768 25-609); experiment: as above
T3 construct: also called HSA
Experimental: as §1

[4] = target: B1; experiment: as above
Experimental: as §1

T2 sequence (P07724 25-608 limits assumed): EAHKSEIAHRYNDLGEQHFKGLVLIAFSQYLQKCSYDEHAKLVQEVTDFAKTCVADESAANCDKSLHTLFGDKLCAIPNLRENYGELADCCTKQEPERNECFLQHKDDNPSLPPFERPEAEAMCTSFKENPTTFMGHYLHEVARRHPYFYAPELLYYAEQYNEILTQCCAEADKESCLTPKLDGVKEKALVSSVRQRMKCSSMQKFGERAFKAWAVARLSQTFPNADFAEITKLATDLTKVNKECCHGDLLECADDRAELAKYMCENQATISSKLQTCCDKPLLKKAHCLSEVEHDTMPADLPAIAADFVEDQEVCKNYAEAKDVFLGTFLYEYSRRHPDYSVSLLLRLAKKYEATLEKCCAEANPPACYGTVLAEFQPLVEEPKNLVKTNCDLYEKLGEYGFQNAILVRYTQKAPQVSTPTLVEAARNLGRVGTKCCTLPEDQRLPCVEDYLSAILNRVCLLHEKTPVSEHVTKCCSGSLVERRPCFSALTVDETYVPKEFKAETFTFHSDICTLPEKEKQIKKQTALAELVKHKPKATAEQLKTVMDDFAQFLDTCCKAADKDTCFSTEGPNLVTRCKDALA

Binder | Kd [1] [nM] | Kd [2] [nM] | Kd [3] [nM] | Kd [4] [nM]
B1 | 2000 | – | – | –
B2 | – | 130 | 150 | 700
B3 | – | 110 | 110 | 800

Reference: patent US20130189255A1 (GlaxoSmithKline, published 2013)
